Among the data in publication PMC4434323 are binding signal (PBM E-score (-0.5 to 0.5)) values, retold here.

The target in data set [1] is T1, daf-12 (F11A1.3) (Caenorhabditis elegans) (UniProt G5EFF5).
T1 sequence: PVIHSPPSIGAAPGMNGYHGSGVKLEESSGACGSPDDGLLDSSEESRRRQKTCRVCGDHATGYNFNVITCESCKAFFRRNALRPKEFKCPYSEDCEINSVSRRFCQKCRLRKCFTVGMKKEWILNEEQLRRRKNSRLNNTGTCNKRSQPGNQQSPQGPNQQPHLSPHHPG

Data set [2] deals with T2, nhr-5 (Y73F8A.21) (Caenorhabditis elegans) (UniProt Q9NA51).
T2 sequence: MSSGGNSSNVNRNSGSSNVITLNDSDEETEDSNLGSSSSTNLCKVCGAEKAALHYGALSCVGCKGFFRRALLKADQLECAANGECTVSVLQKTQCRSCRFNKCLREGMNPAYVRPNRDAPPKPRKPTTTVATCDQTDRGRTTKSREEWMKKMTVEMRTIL

For data set [3], the target named is T3, elt-7 (C18G1.2) (Caenorhabditis elegans) (UniProt O61924).
T3 sequence: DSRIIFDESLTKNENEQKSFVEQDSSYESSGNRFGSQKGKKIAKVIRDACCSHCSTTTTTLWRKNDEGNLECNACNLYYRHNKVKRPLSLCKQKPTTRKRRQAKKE

Data set [4] has as its target T4, elt-6 (F52C12.5) (Caenorhabditis elegans) (UniProt G5EGN3).
T4 sequence: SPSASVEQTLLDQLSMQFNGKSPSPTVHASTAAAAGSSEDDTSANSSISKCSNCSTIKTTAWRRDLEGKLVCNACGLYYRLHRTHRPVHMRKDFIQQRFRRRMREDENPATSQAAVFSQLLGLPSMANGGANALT

Data set [5] concerns the target T5, daf-19 (F33H1.1) (Caenorhabditis elegans) (UniProt Q09555).
T5 sequence: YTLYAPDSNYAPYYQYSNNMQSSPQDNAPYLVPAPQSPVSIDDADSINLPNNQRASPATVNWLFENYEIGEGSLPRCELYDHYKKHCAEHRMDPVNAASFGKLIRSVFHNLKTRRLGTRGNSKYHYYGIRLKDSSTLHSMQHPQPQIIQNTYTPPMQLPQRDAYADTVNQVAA

Data set [6] deals with egl-13 (T22B7.1) (Caenorhabditis elegans) (UniProt Q23045).
egl-13 (T22B7.1) (Caenorhabditis elegans), sequence (Q23045 279-447): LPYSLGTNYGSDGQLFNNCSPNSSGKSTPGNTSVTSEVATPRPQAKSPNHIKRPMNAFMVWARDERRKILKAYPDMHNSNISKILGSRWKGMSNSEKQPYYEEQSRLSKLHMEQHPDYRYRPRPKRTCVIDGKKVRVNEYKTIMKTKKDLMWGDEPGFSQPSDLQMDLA
In data set [7] the target is T6, let-381 (F26B1.7) (Caenorhabditis elegans) (UniProt P91278).
T6 sequence: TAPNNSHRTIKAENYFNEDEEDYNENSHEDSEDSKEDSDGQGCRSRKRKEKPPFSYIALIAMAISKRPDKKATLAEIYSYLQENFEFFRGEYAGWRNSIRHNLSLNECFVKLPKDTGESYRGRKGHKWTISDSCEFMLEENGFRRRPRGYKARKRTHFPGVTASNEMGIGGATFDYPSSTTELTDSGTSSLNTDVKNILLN

The target of data set [8] is T7, fkh-9 (K03C7.2) (Caenorhabditis elegans) (UniProt Q21187).
T7 sequence: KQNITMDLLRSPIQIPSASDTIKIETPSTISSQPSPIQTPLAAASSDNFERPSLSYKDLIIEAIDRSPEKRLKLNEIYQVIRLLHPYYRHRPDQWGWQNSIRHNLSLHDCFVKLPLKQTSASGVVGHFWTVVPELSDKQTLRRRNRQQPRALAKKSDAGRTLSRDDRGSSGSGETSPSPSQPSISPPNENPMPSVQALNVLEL

In data set [9] the target is T8, mnm-2 (C10A4.8) (Caenorhabditis elegans) (UniProt Q17895).
T8 sequence: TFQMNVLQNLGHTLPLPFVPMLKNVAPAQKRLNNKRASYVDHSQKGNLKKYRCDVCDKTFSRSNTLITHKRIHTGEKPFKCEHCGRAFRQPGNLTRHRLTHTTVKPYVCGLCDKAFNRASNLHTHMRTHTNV

On to “AGTGCACT (double strand) [8-mer AGTGCACT]”, for which the binding signal (PBM E-score (-0.5 to 0.5)) turned out to be 0.497 in [1] and 0.456 in data set [2].
For “GCTGATAA (double strand) [8-mer GCTGATAA]”, the binding signal (PBM E-score (-0.5 to 0.5)) was determined as 0.471 in data set [3] and 0.493 in [4].
Sequence “ATAGCAAC (double strand) [8-mer ATAGCAAC]” registered a binding signal (PBM E-score (-0.5 to 0.5)) in [5] of 0.489.
As for “AACAATAG (double strand) [8-mer AACAATAG]”, the binding signal (PBM E-score (-0.5 to 0.5)) in data set [6] was determined as 0.485.
The same measure, in the same setting: to “AACAATAA (double strand) [8-mer AACAATAA]” belongs 0.462.
For “AGTAAACA (double strand) [8-mer AGTAAACA]”, the binding signal (PBM E-score (-0.5 to 0.5)) worked out at 0.457 in [7] and 0.485 in [8].
Regarding “ATGATAAG (double strand) [8-mer ATGATAAG]”, the binding signal (PBM E-score (-0.5 to 0.5)) in [3] came out at 0.457; in data set [4], 0.491.
With “GGTTGCTA (double strand) [8-mer GGTTGCTA]”, the binding signal (PBM E-score (-0.5 to 0.5)) in data set [5] came to 0.493.
As for “CGTTATCA (double strand) [8-mer CGTTATCA]”, the figures for the binding signal (PBM E-score (-0.5 to 0.5)) in data set [3] and in data set [4] were 0.478 and 0.493, respectively.
Taken in the same sequence, the figures for “CCTTATCA (double strand) [8-mer CCTTATCA]” were 0.469 and 0.496.
Turning to “CGTTGCTA (double strand) [8-mer CGTTGCTA]”, the binding signal (PBM E-score (-0.5 to 0.5)) in data set [5] was 0.489.
In the case of “GATGCGCA (double strand) [8-mer GATGCGCA]”, the binding signal (PBM E-score (-0.5 to 0.5)) in data set [9] was 0.484.
As to “ATTGTTTA (double strand) [8-mer ATTGTTTA]”, the binding signal (PBM E-score (-0.5 to 0.5)) in [7] turned out to be 0.467.
For the sequence “AGCGCATC (double strand) [8-mer AGCGCATC]”, in data set [9], the binding signal (PBM E-score (-0.5 to 0.5)) was found to be 0.459.
In the case of “ATGGCAAC (double strand) [8-mer ATGGCAAC]”, in data set [5], the binding signal (PBM E-score (-0.5 to 0.5)) came out at 0.468.
“CTGATAAC (double strand) [8-mer CTGATAAC]”: the binding signal (PBM E-score (-0.5 to 0.5)) came to 0.467 in [3] and 0.493 in data set [4].
In data set [6], “AAACAATA (double strand) [8-mer AAACAATA]” returned a binding signal (PBM E-score (-0.5 to 0.5)) of 0.469.
The sequence “GCGTATCC (double strand) [8-mer GCGTATCC]” yielded a binding signal (PBM E-score (-0.5 to 0.5)) in data set [9] of 0.454.
Take “ATAAACAT (double strand) [8-mer ATAAACAT]”: the binding signal (PBM E-score (-0.5 to 0.5)) in data set [7] was found to be 0.473.
Consider “AGAGTACA (double strand) [8-mer AGAGTACA]”, for which, in data set [2], the binding signal (PBM E-score (-0.5 to 0.5)) worked out at 0.48.
“TAGCAACA (double strand) [8-mer TAGCAACA]” returned a binding signal (PBM E-score (-0.5 to 0.5)) in [5] of 0.474.
Regarding “AAGTACAC (double strand) [8-mer AAGTACAC]”, the binding signal (PBM E-score (-0.5 to 0.5)) in data set [1] turned out to be 0.492; in data set [2] it was 0.457.
Take “TATAAACA (double strand) [8-mer TATAAACA]”: the binding signal (PBM E-score (-0.5 to 0.5)) in data set [7] was 0.483.
For “ACTGATAA (double strand) [8-mer ACTGATAA]”, the results for the binding signal (PBM E-score (-0.5 to 0.5)) in data set [3] and in data set [4] were 0.476 and 0.496, respectively.
For the sequence “GATGCGCC (double strand) [8-mer GATGCGCC]”, in [9], the binding signal (PBM E-score (-0.5 to 0.5)) turned out to be 0.464.
Sequence “AAAGTACG (double strand) [8-mer AAAGTACG]” displayed a binding signal (PBM E-score (-0.5 to 0.5)) in data set [2] of 0.462.
Still for that read-out and setting: to “ATAGTACA (double strand) [8-mer ATAGTACA]” belongs 0.452.
In data set [6], “AGAACAAT (double strand) [8-mer AGAACAAT]” came in with a binding signal (PBM E-score (-0.5 to 0.5)) of 0.469.
As to “AAAGTACA (double strand) [8-mer AAAGTACA]”, the values for the binding signal (PBM E-score (-0.5 to 0.5)) in data set [1] and in data set [2] were 0.497 and 0.482, respectively.
The sequence “GTAAACAC (double strand) [8-mer GTAAACAC]” displayed a binding signal (PBM E-score (-0.5 to 0.5)) in data set [7] of 0.452.
For the sequence “AAGTGCAC (double strand) [8-mer AAGTGCAC]”, the binding signal (PBM E-score (-0.5 to 0.5)) in data set [1] is 0.498; in data set [2] it was 0.453.
With “AAAGAACG (double strand) [8-mer AAAGAACG]”, in data set [2], the binding signal (PBM E-score (-0.5 to 0.5)) worked out at 0.458.
As to “GTTGCTAA (double strand) [8-mer GTTGCTAA]”, the binding signal (PBM E-score (-0.5 to 0.5)) in data set [5] was 0.487.
In turn, “GCACATCC (double strand) [8-mer GCACATCC]” registered a binding signal (PBM E-score (-0.5 to 0.5)) in data set [9] of 0.46.
Turning to “TGATAACA (double strand) [8-mer TGATAACA]”, the binding signal (PBM E-score (-0.5 to 0.5)) was determined as 0.458 in data set [3] and 0.492 in [4].
Take “GTAGCAAC (double strand) [8-mer GTAGCAAC]”: the binding signal (PBM E-score (-0.5 to 0.5)) in data set [5] worked out at 0.46.
In data set [5], “CTAGCAAC (double strand) [8-mer CTAGCAAC]” showed a binding signal (PBM E-score (-0.5 to 0.5)) of 0.484.
Turning to “GATGTGCA (double strand) [8-mer GATGTGCA]”, the binding signal (PBM E-score (-0.5 to 0.5)) in data set [9] stood at 0.457.
The sequence “GTTTATAA (double strand) [8-mer GTTTATAA]” gave a binding signal (PBM E-score (-0.5 to 0.5)) in data set [7] of 0.459.
The sequence “ATAACAAT (double strand) [8-mer ATAACAAT]” displayed a binding signal (PBM E-score (-0.5 to 0.5)) in [6] of 0.471.
“CTGATAAG (double strand) [8-mer CTGATAAG]”: the figures for the binding signal (PBM E-score (-0.5 to 0.5)) in data set [3] and in data set [4] were 0.472 and 0.496, respectively.
“GAAGTGCA (double strand) [8-mer GAAGTGCA]”: the binding signal (PBM E-score (-0.5 to 0.5)) was found to be 0.459 in data set [9] and 0.491 in [1].
The sequence “GAGTACAC (double strand) [8-mer GAGTACAC]” came in with a binding signal (PBM E-score (-0.5 to 0.5)) in [2] of 0.461.
The same measure, in the same setting: to “AAAGTTCA (double strand) [8-mer AAAGTTCA]” belongs 0.46.
In data set [9], “GCGCATCC (double strand) [8-mer GCGCATCC]” showed a binding signal (PBM E-score (-0.5 to 0.5)) of 0.487.
Turning to “ATAAACAA (double strand) [8-mer ATAAACAA]”, the binding signal (PBM E-score (-0.5 to 0.5)) in data set [7] is 0.489; in data set [8] it was 0.485.
On to “GTAACTAA (double strand) [8-mer GTAACTAA]”, for which the binding signal (PBM E-score (-0.5 to 0.5)) in data set [5] is 0.465.
Take “ATGTTTAC (double strand) [8-mer ATGTTTAC]”: in data set [7], the binding signal (PBM E-score (-0.5 to 0.5)) stood at 0.455.
In data set [9], “GCCGTTCC (double strand) [8-mer GCCGTTCC]” came in with a binding signal (PBM E-score (-0.5 to 0.5)) of 0.469.
In turn, “AGTACACT (double strand) [8-mer AGTACACT]” displayed a binding signal (PBM E-score (-0.5 to 0.5)) in data set [2] of 0.454.
“GCGCATCA (double strand) [8-mer GCGCATCA]” returned a binding signal (PBM E-score (-0.5 to 0.5)) in data set [9] of 0.47.
On to “TATGATAA (double strand) [8-mer TATGATAA]”, for which the binding signal (PBM E-score (-0.5 to 0.5)) in data set [3] was determined as 0.457.
For the sequence “TAACAATA (double strand) [8-mer TAACAATA]”, the binding signal (PBM E-score (-0.5 to 0.5)) in [6] was found to be 0.464.
Still for that read-out and setting: to “GAACAATA (double strand) [8-mer GAACAATA]” belongs 0.478.
Sequence “AACAATAC (double strand) [8-mer AACAATAC]” came in with a binding signal (PBM E-score (-0.5 to 0.5)) in [6] of 0.453.
For “GCGGATCC (double strand) [8-mer GCGGATCC]”, in [9], the binding signal (PBM E-score (-0.5 to 0.5)) came out at 0.472.
Sequence “ACAACAAT (double strand) [8-mer ACAACAAT]” showed a binding signal (PBM E-score (-0.5 to 0.5)) in data set [6] of 0.455.
